Results reported in publication PMC9834221, “TLR3 forms a laterally aligned multimeric complex along double-stranded RNA for efficient signal transduction”.

B1: mouse Toll-like receptor 3 (TLR3) extracellular domain (ECD), wild type [mouse] / itself (parent)
chain: TNQCTVRYNVADCSHLKLTHIPDDLPSNITVLNLTHNQLRRLPPTNFTRYSQLAILDAGFNSISKLEPELCQILPLLKVLNLQHNELSQISDQTFVFCTNLTELDLMSNSIHKIKSNPFKNQKNLIKLDLSHNGLSSTKLGTGVQLENLQELLLAKNKILALRSEELEFLGNSSLRKLDLSSNPLKEFSPGCFQTIGKLFALLLNNAQLNPHLTEKLCWELSNTSIQNLSLANNQLLATSESTFSGLKWTNLTQLDLSYNNLHDVGNGSFSYLPSLRYLSLEYNNIQRLSPRSFYGLSNLRYLSLKRAFTKQSVSLASHPNIDDFSFQWLKYLEYLNMDDNNIPSTKSNTFTGLVSLKYLSLSKTFTSLQTLTNETFVSLAHSPLLTLNLTKNHISKIANGTFSWLGQLRILDLGLNEIEQKLSGQEWRGLRNIFEIYLSYNKYLQLSTSSFALVPSLQRLMLRRVALKNVDISPSPFRPLRNLTILDLSNNNIANINEDLLEGLENLEILDFQHNNLARLWKRANPGGPVNFLKGLSHLHILNLESNGLDEIPVGVFKNLFELKSINLGLNNLNKLEPFIFDDQTSLRSLNLQKNLITSVEKDVFGPPFQNLNSLDMRFNPFDCTCESISWFVNWINQTHTNISELSTHYLCNTPHHYYGFPLKLFDTSSCKDSAPFEL

Variants of: B1
Test: cryo-EM 2D classification (fraction of tetrameric TLR3 particles on 90 bp dsRNA)
Details: with itself; TLR3 0.2 mg/mL (~2.4 µM) with 3.6 molar amount of 90 bp dsRNA (0.5 mg/mL, ~8.6 µM); 25 mM MES-NaOH pH 5.3 and 0.2 M NaCl; on ice for 2–3 h; parent: 11; read off a plot

**Q.** chain 1 E499K D500K E503K was tested. Which screen value did it give?
**A.** 2.7%

**Q.** For chain 1 Q93E V96E K113E K115E N117E K120E N121E, which screen value is on record?
**A.** 1.6%

**Q.** chain 1 N498K E499K E503K was tested. Which screen value did it give?
**A.** 12%

**Q.** For chain 1 E499K D500K, which screen value is on record?
**A.** 3.6%

**Q.** With chain 1 S91E Q93E K113E K115E N117E K120E N121E as the variant, how does the screen value read?
**A.** 0.75%
